Assay results from patent publication US20210292393A1 (published 2021).

What was measured:
[1] = target: SARS-CoV-2 full length spike protein, V367F mutant (SARS-CoV-2, UniProt P0DTC2 14-1273)
[2] = target: SARS-CoV-2 full length spike protein, D614G mutant (SARS-CoV-2, UniProt P0DTC2 14-1273)
[3] = target: SARS-CoV-2 full length spike protein, V483A mutant (SARS-CoV-2, UniProt P0DTC2 14-1273)
[4] = target: SARS-CoV-2 full length spike protein, V367F mutant (SARS-CoV-2, UniProt P0DTC2 14-1273); remark: listed apart in the source
[5] = target: SARS-CoV-2 full length spike protein, D614G mutant (SARS-CoV-2, UniProt P0DTC2 14-1273); remark: listed apart in the source

B1: antibody 552 (antibody, V domains shown)
VH: QVQLVQSGAEVKKPGSSVKVSCKASGGTFSSYGISWVRQAPGQGLEWMGRIIPILGIANYAQKFQGRVTITADKSTSTAYMELSSLRSEDTAVYYCARAVYAAGDDDYYYYYGMDVWGQGTTVTVSS
VL: SYELTQPPSVSVSPGQTARITCSGDALPKQYAYWYQQKPGQAPVVVIYKDSDRPSGIPERFSGSSSGTTVTLTISGVQAEDEADYYCQSADSSGTYQVFGTGTKVSVL
- median fold over isotype [1]: 13.2 fold over isotype
- median fold over isotype [2]: 23.5 fold over isotype

B2: antibody 422 (antibody, V domains shown)
VH: QVQLVQSGSELKKPGASVKVSCKASGYTFTSYAMNWVRQAPGQGLEWMGWINTNTGNPTYAQGFTGRFVFSLDTSVSTTYLQISSLKAEDTAVYYCARVIGVVTYYYYGMDVWGQGTTVTVSS
VL: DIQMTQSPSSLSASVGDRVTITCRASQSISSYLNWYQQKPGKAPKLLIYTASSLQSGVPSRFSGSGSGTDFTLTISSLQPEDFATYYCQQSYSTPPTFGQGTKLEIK
- median fluorescence fold over isotype control [3]: 15.2 fold over isotype

B3: antibody 421 (antibody, V domains shown)
VH: QVQLVESGGGVVQPGRSLRLSCAASGFTFSTYAMHWVRQAPGKGLEWVAVISYDGSNKYYADSVKGRFTISRDNSKNTLYLQMNSLRAEDTAVYYCARGYGSGSYYPLYLYWGQGTLVTVSS
VL: not shown
- median fluorescence fold over isotype control [3]: 9.33 fold over isotype

B4: antibody 515 (antibody, V domains shown)
VH: EVQLVESGGGLVKPGGSLRLSCAASGFTFSSYSMNWVRQAPGKGLEWVSSISSSSSYIYYADSVKGRFTISRDNAKNSLYLQMNSLRAEDTAVYYCASIAAAGTLYYYYGMDVWGQGTTVTVSS
VL: not shown
- median fold over isotype [1]: 9.43 fold over isotype
- median fold over isotype [2]: 21.6 fold over isotype

B5: antibody 308 (antibody, V domains shown)
VH: QLQLQESGPGLVKPSETLSLTCSVSGGSISSSSYHWGWIRQPPGKGLEWIGSIYYSGSTYYNPSLKSRVTISVDTSKNQFSLKLRSVTAADTAVYYCAGLRVVITFGGVIPKGGAFDIWGQGTMVTVSS
VL: QSALTQPASVSGSPGQSITISCTGTSSDVGGYNYVSWYQQHPGKAPKLMIYDVSNRPSGVSNRFSGSKSGNTASLTISGLQAEDEADYYCSSYTSSSTVVFGGGTKLTVL
- median fluorescence intensity, fold over isotype control [4]: 33.4 fold over isotype
- median fluorescence intensity, fold over isotype control [5]: 7.93 fold over isotype

B6: antibody 528 (antibody, V domains shown)
VH: QVQLVQSGAEVKKPGSSVKVSCKASGGTFNSNSISWVRQAPGQGLEWMGRIIPILDITMYARKFQGRVTISADKSTGTAYMDLSSLRSEDTAVYYCATDRDDSSGDYYYGMDVWGQGTTVTVSS
VL: DIQMTQSPSSLSASVGDRVTITCRASLSISNYLNWYQQKPGKAPNLLIYAASTLQSGVPSRFSGSGSGTDFTLTISSLQPEDFATYYCQQTYITRWTFGQGTKVEIK
- median fold over isotype [1]: 31.2 fold over isotype
- median fold over isotype [2]: 3.71 fold over isotype

B7: antibody 520 (antibody, V domains shown)
VH: QVQLVESGGGVVQPGRSLRLSCAASGFTFSSYAMHWGRQAPGKGLEWVAVISYDGSNKYYADSVKGRFTISRDNSKNTLYLQMNSLRAEDTAVYYCARDGGSGWLLVGNWFDPWGQGTLVTVSS
VL: QSALTQPASVSGSPGQSITISCTGTSSDVGGYNYVSWYQQHPGKAPKLMIYDVSNRPSGVSNRFSGSKSGNTASLTISGLQAEDEADYYCSSYTSSITLYVFGTGTKVTVL
- median fold over isotype [1]: 31.2 fold over isotype
- median fold over isotype [2]: 7.6 fold over isotype

B8: antibody 431 (antibody, V domains shown)
VH: QVQLVESGGGVVQPGRSLRLSCAASGFTFSSYAMHWVRQAPGKGLEWLAVISYDGSNKYYADSVKGRFTISRDNSKNTLYLQMNSLRAEDTAVYYCARSFRGGYYYGMDVWGQGTTVTVSS
VL: DIQLTQSPSFLSASVGDRVTITCRASQGISSYLAWYQQKPGKAPKLLIYAASTLQSGVPSRFSGSGSGTEFTLTISSLQPEDFATYYCQQLNSYPLFTFGPGTKVDIK
- median fluorescence fold over isotype control [3]: 11.7 fold over isotype

B9: antibody 439 (antibody, V domains shown)
VH: QVQLVESGGGVVQPGRSLRLSCAASGFTFSSYAMHWVRQAPGKGLEWVAVISYDGSNKYYADSVKGRFTISRDNSKNTLYLQMNSLRAEDTAVYYCARPPRGGSYYPFDPWGQGTLVTVSS
VL: not shown
- median fluorescence fold over isotype control [3]: 9.01 fold over isotype

B10: antibody 532 (antibody, V domains shown)
VH: EVQLVESGGGLVQPGGSLRLSCAASGIIVSSNYMSWVRQAPGKGLEWVSVIYSGGSTYYADSVKGRFTISRDNSKNTLYLQMNSLRAEDTAVYYCAREGLVGATLAFDYWGQGTLVTVSS
VL: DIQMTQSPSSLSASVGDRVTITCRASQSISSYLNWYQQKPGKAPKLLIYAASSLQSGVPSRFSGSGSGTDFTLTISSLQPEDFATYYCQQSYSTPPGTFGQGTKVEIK
- median fold over isotype [1]: 45.1 fold over isotype
- median fold over isotype [2]: 74.9 fold over isotype

B11: antibody 310 (antibody, V domains shown)
VH: EVQLVESGGGLVQPGGSLRLSCAASGFTFSSYWMSWVRQAPGKGLEWVANIKQDGSEKYYVDSVKGRFTISRDNAKNSLYLQMNSLRAEDTAVYYCARVGSSSWYFDYWGQGTLVTVSS
VL: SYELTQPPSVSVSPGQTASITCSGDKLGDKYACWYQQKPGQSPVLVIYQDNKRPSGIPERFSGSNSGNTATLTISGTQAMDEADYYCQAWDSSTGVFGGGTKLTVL
- median fluorescence intensity, fold over isotype control [4]: 28.1 fold over isotype
- median fluorescence intensity, fold over isotype control [5]: 5.35 fold over isotype

B12: antibody 529 (antibody, V domains shown)
VH: QVQLVQSGAEVKKPGASVKVSCKASGYTFTSYGISWVRQAPGQGLEWMGWISAYNGNTNYAQKLQGRVTMTTDTSTSTAYMELRSLRSDDTAVYYCARMLIAAAGTSRDYYGMDVWGQGTTVTVSS
VL: EIVLTQSPDFQSVTPKEKVTITCRASQSIGSSLHWYQQKPDQSPKLLIKYASQSFSGVPSRFSGSGSGTDFTLTINSLEAEDAATYYCHQSSSLPHTFGGGTKVEIK
- median fold over isotype [1]: 0.98 fold over isotype
- median fold over isotype [2]: 0.77 fold over isotype

B13: antibody 525 (antibody, V domains shown)
VH: QVQLVESGGGVVQPGRSLRLSCAASGFTFSSYAMHWVRQAPGKGLEWVTVISYNGRNKYYADSVKGRFTISRDNSKNTLYLQMNSLRAEDTAVYWCAREGLGAIVVGLDYWGQGTLVIVSS
VL: not shown
- median fold over isotype [1]: 32.4 fold over isotype
- median fold over isotype [2]: 7.12 fold over isotype

B14: antibody 559 (antibody, V domains shown)
VH: QVQLQESGPGLVKLSETLSLTCTVSGYSISSGYYWGWIRQPPGKGLEWIGSIYHSGSTYYNPSLKSRVTISVDTSKNQFSLKLSSVTAADTAVYYCAREETLGSSWYESYIDYWGQGTLVTVSS
VL: SYVLTQPPSVSVAPGKTARITCGGNNIGSKSVHWYQQKPGQAPVLVIYYDSDRPSGIPERFSGSNSGNTATLTISRVEAGDEADYYCQVWDSSSDHPRVFGGGTKLTVL
- median fold over isotype [1]: 25.4 fold over isotype
- median fold over isotype [2]: 49.5 fold over isotype

B15: antibody 423 (antibody, V domains shown)
VH: EVQLVESGGGLIQPGGSLRISCAASGFTVRNNHMSWVRQAPGKGLEWVSVFYRGGTTYYADSVKGRFTISRDDSKNTVDLQMNSLRGEDTAVYYCARGLSVAASGYFDCWGQGTLVTVSS
VL: DIQMTQSPSSVSASVGDTVTITCRANQGISSWLAWYQQVPGKAPELLIYATSTLQSGVPSRFSGSGSGTDFTLTISSLQPEDFATYYCQQANSFPFTFGPGTKVDIK
- median fluorescence fold over isotype control [3]: 15.3 fold over isotype

B16: antibody 530 (antibody, V domains shown)
VH: EVQLVESGGGLVQPGGSLRLSCAASGFTFSSYWMSWVRQAPGKGLEWVANIKQDGSEKYYVDSVKGRFTISRDNAKNSLYLQMNSLRAEDTAVYYCAREPQLWSEYYFDYWGQGTLVTVSS
VL: DIQMTQSPSSLSASVGDRVTITCRASQGISSWLAWYQQKPEKAPKSLIYAASSLQSGVPSRFSGSGSGTDFTLTISSLQPEDFATYYCQQYNSYPPTFGQGTRLEIK
- median fold over isotype [1]: 8.39 fold over isotype
- median fold over isotype [2]: 8.68 fold over isotype

B17: antibody 535 (antibody, V domains shown)
VH: EVQLVESGGGLIQPGGSLRLSCAASGFTVSSNYMSWVRQAPGKGLEWVSVIYSGGSTYYADSVKGRFTISRDNSKNTLYLQMNSLRAEDTAVYYCARDLTEEGDFWSASSYRRYYYYGMDVWGQGTTVTVSS
VL: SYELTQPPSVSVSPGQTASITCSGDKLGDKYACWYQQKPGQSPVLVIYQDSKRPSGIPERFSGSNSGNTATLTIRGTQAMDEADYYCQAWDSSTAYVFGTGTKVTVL
- median fold over isotype [1]: 64.5 fold over isotype
- median fold over isotype [2]: 93.2 fold over isotype
